Earlier results on two substances are cited in paper PMC3185792.

Like-named read-outs stand apart in the source and are kept apart here.

Series [1] concerns the target ICAM (Homo sapiens) (UniProt P05362).
Series [2] has the same target. This is another data set of the same source.

Sequence of ICAM (Homo sapiens) (P05362 28-480): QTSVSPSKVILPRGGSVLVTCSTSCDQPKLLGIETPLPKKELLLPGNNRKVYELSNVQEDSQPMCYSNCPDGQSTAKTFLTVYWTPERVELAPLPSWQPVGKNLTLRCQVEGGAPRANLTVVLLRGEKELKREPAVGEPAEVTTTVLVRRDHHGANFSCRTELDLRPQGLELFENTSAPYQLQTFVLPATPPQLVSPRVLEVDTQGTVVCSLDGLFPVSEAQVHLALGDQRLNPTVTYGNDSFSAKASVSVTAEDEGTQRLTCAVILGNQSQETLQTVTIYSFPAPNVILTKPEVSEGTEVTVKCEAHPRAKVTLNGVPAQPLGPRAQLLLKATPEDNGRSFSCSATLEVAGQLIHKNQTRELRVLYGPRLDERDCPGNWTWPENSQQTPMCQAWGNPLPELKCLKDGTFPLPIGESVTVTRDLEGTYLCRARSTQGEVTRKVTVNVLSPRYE
Sequence of LFA-1 integrin (closed conformation) (P20701 26-1090): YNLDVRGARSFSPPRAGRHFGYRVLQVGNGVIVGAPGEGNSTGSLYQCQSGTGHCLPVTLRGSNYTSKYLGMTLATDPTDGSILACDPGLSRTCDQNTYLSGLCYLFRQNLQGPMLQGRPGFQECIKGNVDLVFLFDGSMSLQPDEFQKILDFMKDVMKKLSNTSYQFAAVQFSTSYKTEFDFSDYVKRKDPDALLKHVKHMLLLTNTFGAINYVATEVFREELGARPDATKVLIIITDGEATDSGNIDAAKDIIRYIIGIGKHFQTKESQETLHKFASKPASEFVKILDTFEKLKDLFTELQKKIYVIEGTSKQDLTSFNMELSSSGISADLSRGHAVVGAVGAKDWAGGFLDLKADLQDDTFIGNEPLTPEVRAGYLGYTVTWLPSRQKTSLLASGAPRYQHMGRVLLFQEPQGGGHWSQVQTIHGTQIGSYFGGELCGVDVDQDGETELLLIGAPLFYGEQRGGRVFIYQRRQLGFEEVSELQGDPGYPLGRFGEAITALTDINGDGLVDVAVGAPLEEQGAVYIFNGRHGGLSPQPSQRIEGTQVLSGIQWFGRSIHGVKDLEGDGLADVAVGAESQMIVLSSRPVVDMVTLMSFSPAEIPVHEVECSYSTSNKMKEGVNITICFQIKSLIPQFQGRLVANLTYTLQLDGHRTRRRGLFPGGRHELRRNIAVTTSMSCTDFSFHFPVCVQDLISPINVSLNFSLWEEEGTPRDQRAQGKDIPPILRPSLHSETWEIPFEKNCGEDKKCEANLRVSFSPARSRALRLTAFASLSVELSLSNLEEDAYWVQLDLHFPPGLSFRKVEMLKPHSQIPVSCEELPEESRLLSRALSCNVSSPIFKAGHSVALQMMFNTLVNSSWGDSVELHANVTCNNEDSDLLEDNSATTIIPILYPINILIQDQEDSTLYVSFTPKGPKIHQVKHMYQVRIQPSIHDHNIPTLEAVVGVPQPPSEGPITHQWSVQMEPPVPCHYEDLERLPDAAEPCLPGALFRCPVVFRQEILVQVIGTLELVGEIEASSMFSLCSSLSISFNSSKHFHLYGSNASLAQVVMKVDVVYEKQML
Sequence of LFA-1 integrin (closed conformation) (P05107 23-700, further chain): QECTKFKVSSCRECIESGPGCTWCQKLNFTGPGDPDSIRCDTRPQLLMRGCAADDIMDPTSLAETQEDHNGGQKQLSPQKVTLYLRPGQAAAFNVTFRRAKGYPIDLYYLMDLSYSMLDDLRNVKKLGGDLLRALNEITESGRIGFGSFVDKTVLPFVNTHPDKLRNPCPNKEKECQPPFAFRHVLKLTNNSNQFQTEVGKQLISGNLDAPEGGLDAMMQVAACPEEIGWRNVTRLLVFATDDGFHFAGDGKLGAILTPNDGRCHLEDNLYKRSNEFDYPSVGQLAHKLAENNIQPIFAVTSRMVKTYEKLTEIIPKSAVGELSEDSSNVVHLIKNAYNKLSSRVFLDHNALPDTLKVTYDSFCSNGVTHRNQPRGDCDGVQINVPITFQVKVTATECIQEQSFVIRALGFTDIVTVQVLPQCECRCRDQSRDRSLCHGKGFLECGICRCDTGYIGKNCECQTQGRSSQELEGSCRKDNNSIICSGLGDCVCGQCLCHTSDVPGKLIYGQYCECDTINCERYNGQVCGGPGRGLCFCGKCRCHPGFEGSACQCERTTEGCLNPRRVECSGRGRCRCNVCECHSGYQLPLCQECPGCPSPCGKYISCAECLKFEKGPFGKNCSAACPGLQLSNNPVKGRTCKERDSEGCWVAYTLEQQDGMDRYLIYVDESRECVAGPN
Sequence of LFA-1 integrin (open conformation) (P20701 26-1090): as the sequence (P20701 26-1090) above
Sequence of LFA-1 integrin (open conformation) (P05107 23-700, further chain): as the sequence (P05107 23-700, further chain) above

For “LFA-1 integrin (closed conformation) (from UniProt P20701)”, in series [1], the equilibrium dissociation constant (Kd) (as a rule, the free concentration of one partner at which half of the binding sites on the other are occupied at equilibrium, for simple one-to-one binding) is 100 µM.
On to “LFA-1 integrin (open conformation) (from UniProt P20701)”, for which the dissociation constant (Kd) in series [2] was 0.4 µM.
